The results in this text go back to the PETadex activity labels (doi:10.1016/s0021-9258(19)85305-x).

As usually defined, the Km is the concentration of substrate that gives half-maximal velocity. Broadly, the kcat is the maximal rate divided by the concentration of active sites. Broadly, the kcat/Km is the turnover number divided by the Michaelis constant.

Sequences and labels used below:
B1: unnamed (protein)
chain: MRPPQCLLHTPSLASPLLLLLLWLLGGGVGAEGREDAELLVTVRGGRLRGIRLKTPGGPVSAFLGIPFAEPPMGPRRFLPPEPKQPWSGVVDATTFQSVCYQYVDTLYPGFEGTEMANPNRELSEDCLYLNVWTPYPRPTSPTPVLVWIYGGGFYSGASSLDVYDGRFLVQAERTVLVSMNYRVGAFGFLALPGSREAPGNVGLLDQRLALQWVQENVAAFGGDPTSVTLFGESAGAASVGMHLLSPPSRGLFHRAVLQSGAPNGPWATVGMGEARRRATQLAHLVGCPPGGTGGNDTELVACLRTRPAQVLVNHEWHVLPQESVFRFSFVPVVDGDFLSDTPEALINAGDFHGLQVLVGVVKDEGSYFLVYGAPGFSKDNESLISRAEFLAGVRVGVPQVSDLAAEAVVLHYTDWLHPEDPARLREALSDVVGDHNVVCPVAQLAGRLAAQGARVYAYVFEHRASTLSWPLWMGVPHGYEIEFIFGIPLDPSRNYTAEEKIFAQRLMRYWANFARTGDPNEPRDPKAPQWPPYTAGAQQYVSLDLRPLEVRRGLRAQACAFWNRFLPKLLSATDTLDEAERQWKAEFHRWSSYMVHWKNQFDHYSKQDRCSDL
B2: unnamed (protein)
chain: MRPPQCLLHTPSLASPLLLLLLWLLGGGVGAEGREDAELLVTVRGGRLRGIRLKTPGGPVSAFLGIPFAEPPMGPRRFLPPEPKQPWSGVVDATTFQSVCYQYVDTLYPGFEGTEMWNPNRELSEDCLYLNVWTPYPRPTSPTPVLVWIYGGGFYSGASSLDVYDGRFLVQAERTVLVSMNYRVGAFGFLALPGSREAPGNVGLLDQRLALQWVQENVAAFGGDPTSVTLFGESAGAASVGMHLLSPPSRGLFHRAVLQSGAPNGPWATVGMGEARRRATQLAHLVGCPPGGTGGNDTELVACLRTRPAQVLVNHEWHVLPQESVFRFSFVPVVDGDFLSDTPEALINAGDFHGLQVLVGVVKDEGSYALVYGAPGFSKDNESLISRAEFLAGVRVGVPQVSDLAAEAVVLHYTDWLHPEDPARLREALSDVVGDHNVVCPVAQLAGRLAAQGARVYAYVFEHRASTLSWPLWMGVPHGYEIEFIFGIPLDPSRNYTAEEKIFAQRLMRYWANFARTGDPNEPRDPKAPQWPPYTAGAQQYVSLDLRPLEVRRGLRAQACAFWNRFLPKLLSATDTLDEAERQWKAEFHRWSSYMVHWKNQFDHYSKQDRCSDL
B3: unnamed (protein)
chain: MRPPQCLLHTPSLASPLLLLLLWLLGGGVGAEGREDAELLVTVRGGRLRGIRLKTPGGPVSAFLGIPFAEPPMGPRRFLPPEPKQPWSGVVDATTFQSVCYQYVDTLYPGFEGTEMWNPNRELSEDCLYLNVWTPYPRPTSPTPVLVWIYGGGFYSGASSLDVYDGRFLVQAERTVLVSMNYRVGAFGFLALPGSREAPGNVGLLDQRLALQWVQENVAAFGGDPTSVTLFGESAGAASVGMHLLSPPSRGLFHRAVLQSGAPNGPWATVGMGEARRRATQLAHLVGCPPGGTGGNDTELVACLRTRPAQVLVNHEWHVLPQESVFRFSFVPVVDGDFLSDTPEALINAGDFHGLQVLVGVVKDEGSFFLVYGAPGFSKDNESLISRAEFLAGVRVGVPQVSDLAAEAVVLHYTDWLHPEDPARLREALSDVVGDHNVVCPVAQLAGRLAAQGARVYAYVFEHRASTLSWPLWMGVPHGYEIEFIFGIPLDPSRNYTAEEKIFAQRLMRYWANFARTGDPNEPRDPKAPQWPPYTAGAQQYVSLDLRPLEVRRGLRAQACAFWNRFLPKLLSATDTLDEAERQWKAEFHRWSSYMVHWKNQFDHYSKQDRCSDL
B4: unnamed (protein)
chain: MRPPQCLLHTPSLASPLLLLLLWLLGGGVGAEGREDAELLVTVRGGRLRGIRLKTPGGPVSAFLGIPFAEPPMGPRRFLPPEPKQPWSGVVDATTFQSVCYQYVDTLYPGFEGTEMWNPNRELSEDCLYLNVWTPYPRPTSPTPVLVWIYGGGFYSGASSLDVYDGRFLVQAERTVLVSMNYRVGAFGFLALPGSREAPGNVGLLDQRLALQWVQENVAAFGGDPTSVTLFGESAGAASVGMHLLSPPSRGLFHRAVLQSGAPNGPWATVGMGEARRRATQLAHLVGCPPGGTGGNDTELVACLRTRPAQVLVNHEAHVLPQESVFRFSFVPVVDGDFLSDTPEALINAGDFHGLQVLVGVVKDEGSYFLVYGAPGFSKDNESLISRAEFLAGVRVGVPQVSDLAAEAVVLHYTDWLHPEDPARLREALSDVVGDHNVVCPVAQLAGRLAAQGARVYAYVFEHRASTLSWPLWMGVPHGYEIEFIFGIPLDPSRNYTAEEKIFAQRLMRYWANFARTGDPNEPRDPKAPQWPPYTAGAQQYVSLDLRPLEVRRGLRAQACAFWNRFLPKLLSATDTLDEAERQWKAEFHRWSSYMVHWKNQFDHYSKQDRCSDL
B5: unnamed (protein)
chain: MRPPQCLLHTPSLASPLLLLLLWLLGGGVGAEGREDAELLVTVRGGRLRGIRLKTPGGPVSAFLGIPFAEPPMGPRRFLPPEPKQPWSGVVDATTFQSVCYQYVDTLYPGFEGTEMWNPNRELSEDCLYLNVWTPYPRPTSPTPVLVWIYGGGFYSGASSLDVYDGRFLVQAERTVLVSMNYRVGAFGFLALPGSREAPGNVGLLDQRLALQWVQENVAAFGGDPTSVTLFGESAGAASVGMHLLSPPSRGLFHRAVLQSGAPNGPWATVGMGEARRRATQLAHLVGCPPGGTGGNDTELVACLRTRPAQVLVNHEWHVLPQESVFRFSFVPVVDGDFLSDTPEALINAGDFHGLQVLVGVVKDEGSYFLVYGAPGFSKDNESLISRAEFLAGVRVGVPQVSDLAAEAVVLHYTDWLHPEDPARLREALSDVVGDHNVVCPVAQLAGRLAAQGARVYAYVFEHRASTLSWPLWMGVPHGYEIEFIFGIPLDPSRNYTAEEKIFAQRLMRYWANFARTGDPNEPRDPKAPQWPPYTAGAQQYVSLDLRPLEVRRGLRAQACAFWNRFLPKLLSATDTLDEAERQWKAEFHRWSSYMVHWKNQFDHYSKQDRCSDL

Substrate in this data set: p-NP-C2
Conditions: pH 8; 27 °C.
Regarding B1, the Km was 3 mM, the kcat was determined as 3170 s⁻¹ and the kcat/Km amounted to 1.06e+06 M⁻¹ s⁻¹.

For the protein B2, the Michaelis-Menten constant (Km) is 8.6 mM, the kcat was determined as 333 s⁻¹ and the kcat/Km is 38800 M⁻¹ s⁻¹.

Take B3: the Km is 5.4 mM, the kcat was determined as 1600 s⁻¹ and the catalytic efficiency (kcat/Km) stood at 296000 M⁻¹ s⁻¹.

For B4, the Km came to 4.6 mM, the kcat turned out to be 2170 s⁻¹ and the kcat/Km is 471000 M⁻¹ s⁻¹.

With B5, the Michaelis constant (Km) is 5.6 mM, the kcat stood at 1830 s⁻¹ and the kcat/Km stood at 327000 M⁻¹ s⁻¹.
